Publication PMC4363471, “Crystal Structure of Helicobacter pylori Pseudaminic Acid Biosynthesis N-Acetyltransferase PseH: Implications for Substrate Specificity and Catalysis” (PLoS ONE, 2015)

Target: the molecule itself
Assay: SEC; Superdex 200 HiLoad 26/60 gel filtration, 50 mM Tris/HCl pH 8.0, 200 mM NaCl; molecular weight from a calibration plot of log MW versus retention volume

B1: Pseudaminic acid biosynthesis protein H (PseH) from Helicobacter pylori (enzyme, UniProt O25094 1-180, looked up)
chain: MKKNYSYKNIQAIDFTNLNDGEKLLVLEFRNHPNTALWMYSTFISLKTHLQFIEDLKNSPNHRYFLFKEEGVYLGVGSITKINFFHKHGYLGIYKNPFLKNGGETILKALEFIAFEEFQLHSLHLEVMENNFKAIAFYEKNHYELEGRLKGFISKDKEFIDVLLYYKDKKGYNDQSLLKL
notes: PseH, N-acetyltransferase (EC 2.3.1.202) of H. pylori, 21 kDa, residues 1-180; the construct carries an additional GIDPFT fragment (cloning artifact); it is probably N-terminal, left after cleavage of a vector tag (surmised); Crystallised with the cofactor acetyl-CoA; also called flagellin modification protein H; FlmH; source: recombinant, purified as previously described [14]
  stoichiometry N: 2
